The test system of assay [1] is seven fluorescein-labeled pTyr-containing peptides. Nature of the assay: in-solution fluorescence polarization binding assay, set of seven peptides. To be noted: average over seven peptides, relative to the wild type of the same SH2 domain. The procedure: (§1) Each peptide was synthesized on the TentaGel amide resin (INTAVIS Inc.) and N-terminally labeled with fluorescein using NHS-fluorescein (Thermo Fisher Scientific). Each of the 13 variant and the wild-type SH2 domain was produced by overexpression in the Escherichia coli BL21(DE3) strain cultured in LB media (EMD Chemicals). Expression was induced by 0.3 mM isopropyl β-D-1-thiogalactopyranoside (IPTG), and the cell culture was incubated for 5 hours at 37° C. The cells were harvested by centrifuge, and broken on ice, in buffer solution containing 20 mM sodium phosphate, 0.1 M NaCl, 20 mM imidazole, 1 mg/ml lysozyme and 1% Triton-X 100, adjusted at pH 7.8. Affinity purification was performed with the Ni-NTA agarose resin (Qiagen Inc.), according to the manufacturer's instruction. The purified material was dialyzed against phosphate-buffered saline (PBS), pH 7.4, at 4° C. overnight. Measurements of fluorescence polarization were conducted by titrating the SH2 domain concentration, while keeping the peptide concentration constant. Kd values were calculated with the GraphPad Prism software, by assuming the one-site binding model (GraphPad Software).
(§2) The determined Kd values of interaction between the 14 SH2 domains (including the wild-type) and seven peptides were listed in FIG. 7(a).
The wild-type and variant Src SH2 domains were expressed in E. coli BL21(DE3) strain grown in the LB media, by inducing protein expression with 0.3 mM IPTG, and incubating the cell culture at 30° C. for six hours. Cells were harvested by centrifuge, and broken on ice in buffer solution containing 20 mM sodium phosphate, 0.1 M NaCl, 20 mM imidazole, 1 mg/ml lysozyme, 1% Triton-X 100, adjusted at pH 7.8. Affinity purification was performed with the Ni-NTA, agarose resin, according to the manufacturer's instruction. […]
Fluorescence polarization assay was conducted to determine Kd values of the interaction between the wild-type or variant Src SH2 domain and seven fluorescein-labeled pTyr-containing peptides (FIG. 9a).

Assay [2] has as its system non-phosphorylated fluorescein-GGYGG peptide (SEQ ID NO: 24). The assay is described as follows: fluorescence polarization binding assay, non-phosphorylated GGYGG peptide. The procedure:
as §1, §2

Assay [3] addresses T1, EGFR (Homo sapiens, UniProt P00533).
T1 construct: endogenous in cells; host or cells: HEK 293
The assay is described as follows: immunoprecipitation of GFP-fused SH2 domains with EGFR in HEK 293 cells. The assay is classed as cell-based. To be noted: GFP-fusion expressed in HEK 293 cells, EGF 100 ng/ml, anti-GFP and anti-EGFR antibodies. The source says:
The three variant SH2 domains mentioned in the previous sentence were dubbed as 8V/10A/15L-substituted SH2 domains, or the TrM SH2 domains, in the following descriptions, as well as in FIG. 11 and FIG. 12. The wild-type (Wt) and TrM SH2 domains, subcloned into the pEGFPC2 vector, were expressed in the HEK 293 cells as a GFP-fusion protein. Methods used in this and the following sections are described below.
Anti-GFP rabbit polyclonal antibody was purchased from Sigma-Aldrich. Anti-EGFR rabbit polyclonal antibody was purchased from Millipore. Anti-p44/42 MAPK (Erk1/2) mouse monoclonal antibody, and anti-phospho-p44/42 MAPK (Thr202/Tyr204) mouse monoclonal antibody were purchased from Cell Signaling. HEK 293 cells were grown in Dulbecco's modification of Eagle's medium (DMEM, Sigma-Aldrich) supplemented with 10% fetal bovine serum (FBS, SAFC Biosciences), 50 units/ml penicillin and 50 μg/ml streptomycin (GIBCO Invitrogen Corp.) in a humidified atmosphere of 5% CO2 in air at 37° C. EGF (Invitrogen) at a final concentration of 100 ng/ml was added to the medium at the indicated time point. Transient transfections were carried out with jet-PEI (PolyPlus-Transfection; Illkirch, France) according to manufacturer's instruction.
HEK 293 cells were transfected with the SH2 domain construct subcloned in the pEGFPC2 vector, and incubated in serum-containing full medium for 24 h followed by serum-starvation for 16 h and then EGF (100 ng/ml) treatment for 10 min, pervanadate treatment for 10 min. The whole cell lysates were prepared and subjected to IB analysis to detect phosphorylated Erk and total Erk.
HEK 293 cells were lysed with cold lysis buffer (1% NP-40, 50 mM Tris-HCl pH 7.4, 150 mM NaCl, 2 mM EDTA, 50 mM NaF, 10% Glycerol and protease inhibitor cocktail diluted at 1:1000). After centrifugation at 13,000*g for 15 min, the supernatants were collected. After clearance of the lysate with appropriate pre-immune serum and protein G (Roche), immunoprecipitation (IP) and immunoblotting (IB) were performed. […]

Assay [4] relates to tyrosine-phosphorylated proteins from HeLa cell lysate. The assay is described as follows: GST pulldown assay, pervanadate-treated HeLa cell lysate. The assay is classed as binding. The following applies: GST fusion, compared to the Wt SH2 domain, 4G10 immunoblot. The procedure: The wild-type (Wt) and triple mutant (TrM) Fyn SH2 domains (Ala^139-Gly^249) were respectively subcloned into the pETM30 vector (Dümmler, et al. Microb. Cell Fact. 4, 34 (2005)). The Fyn SH2 domain constructs contain a FLAG tag sequence ([…]) (SEQ ID NO: 27) at the C-terminus. To create the GST control vector, a stop codon was inserted after the GST tag sequence of the original pETM30 vector. The GST and GST-SH2 proteins were expressed in E. coli BL21(DE3). HeLa cells were treated with 50 μM pervanadate for 10 min at 37° C. HeLa cells were lysed on ice in lysis buffer containing 0.5% NP-40, 50 mM HEPES pH 7.4, 1 mM magnesium chloride, 150 mMKCl, and the COMPLETE protease inhibitor cocktail (Roche). The GST pulldown assay was conducted as described (Li et al. J. Biol. Chem. 278, 3852-3859 (2003)).
(In general: Immunoblotting shows a protein as a band on a membrane.)

Assay [5] deals with fluorescein-GGpYGG peptide (SEQ ID NO: 23). Nature of the assay: fluorescence polarization binding assay, GGpYGG peptide. (In general: In fluorescence polarisation assays a small probe gives low polarisation when free and higher when bound to something large.)
The subject of assay [6] is phosphorylated proteins (ALK) from H370 cell lysate. Nature of the assay: GST pulldown, H370 cell lysate with ALK activation by mAb46. It is filed as binding, human. The following applies: GST fusion, compared to the Wt. The procedure: The Wt human Src (hSrc) SH2, the TrM hSrc SH2, and Wt Rous sarcoma virus Src (vSrc) SH2 domains were prepared, respectively, as GST tag fusion proteins. The vSrc SH2 domain is almost identical to the hSrc SH2 domain (there are three-residue differences in the SH2 domain region, and the differences are located outside of the target-binding surface). 5 μg of the GST-tagged SH2 domain was incubated with 500 μg of H370 cell lysate treated with or without the ALK activation antibody mAb-46 at room temperature for 30 min. 20 μl of glutathione sepharose beads was then added for another 30 minincubation at room temperature. As a positive control, the anti-pTyr antibody P-Tyr-100 (Cell Signaling, #9411) was used for immunoprecipitation. 4 μl of the P-Tyr-100 antibody was incubated with 500 μg H370 cell lysate treated with or without the ALK activation antibody mAb-46 for 2 hours at 4° C. Next, 20 μl protein G beads was added for another incubation for two hours at 4° C. The glutathione beads or protein G beads were washed with 1×PBS (phosphate buffered saline) three times. The beads were added to 30 μl 2×SDS loading buffer and boiled for 10 min. The samples were resolved on an 8% Bis-Tris SDS-PAGE gel. The gel was applied to Western blotting to transfer the samples onto PVDF membrane (Millipore) and the proteins were probed with the P-Tyr-100 antibody. […]

Assay [7] deals with tyrosine-phosphorylated proteins of U937 cell lysate. Nature of the assay: Far-Western blotting, pervanadate-treated U937 cell lysate. The following applies: GST fusion 3.5 μg/ml. It is filed as binding, human. The procedure:
The GST protein and GST-Src SH2 TrM were prepared as 3.5 μg/ml concentration in the TBS buffer (50 mM Tris-HCl pH 7.2, 137 mM NaCl). The cultured U937 cells were treated with or without 50 μM pervanadate in PBS for 10 min at 37° C. The cells were lysed in the buffer (0.5% NP-40, 50 mM HEPES pH 7.4, 1 mM magnesium chloride, 150 mMKCl) with sonication on ice, and supernatant was loaded on an SDS-PAGE gel for separation and following transfer to the PVDF membrane (Millipore). The membrane was blocked with 5% milk in TBS-T (0.5% Tween-20 in TBS) overnight at 4° C., and probed with 3.5 μg/ml GST proteins for 1 hour at room temperature. The membrane was washed with TBS-T, and incubated with anti-GST antibody-HRP (horseradish peroxidase) conjugate (Sigma, #A7340) for 1 hour at room temperature. The signal from HRP was detected as enhanced chemiluminescence on an X-ray film.

Assay [8] concerns A549 cells. The assay is described as follows: cell viability after gold nanoparticle delivery of SH2 protein, EGF treatment, A549. It is filed as cell-based. The following applies: 100 ng/ml EGF, compared with the Wt SH2 domain. The procedure:
(§3) The hexa-histidine-tagged SrcWt and TrM proteins were purified to homogeneity in 5 mM HEPES buffer (pH 7.6). 1 nM of gold nanoparticle was mixed with 100 nMWt or TrM variant protein. The MCF-7 and A549 cells were starved six hours before treatment. The cells were then treated with 100 ng/ml EGF for 20 hours. The nanoparticle-protein mixture was applied to cells. Cells were trypsinized and stained using 0.4% trypan blue (Sigma-Aldrich) and viable and total cell numbers were counted haemacytometer with the use of a microscope according to manufacturer's instruction.

Assay [9] concerns MCF-7 cells. The assay is described as follows: cell viability after gold nanoparticle delivery of SH2 protein, EGF treatment, MCF-7. The assay is classed as cell-based. To be noted: MCF-7 (no EGF receptor), 100 ng/ml EGF. The procedure:
as §3

Changes are numbered by the printed parent chain. Names and notes keep the numbering of the source.

Chain of non-phosphorylated fluorescein-GGYGG peptide (SEQ ID NO: 24) (as listed by the source): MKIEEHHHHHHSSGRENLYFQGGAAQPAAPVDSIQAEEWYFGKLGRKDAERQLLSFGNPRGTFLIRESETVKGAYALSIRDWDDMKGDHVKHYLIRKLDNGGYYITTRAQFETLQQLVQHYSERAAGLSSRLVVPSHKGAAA
Chain of phosphorylated proteins (ALK) from H370 cell lysate (Q9UM73 1060-1620 limits assumed): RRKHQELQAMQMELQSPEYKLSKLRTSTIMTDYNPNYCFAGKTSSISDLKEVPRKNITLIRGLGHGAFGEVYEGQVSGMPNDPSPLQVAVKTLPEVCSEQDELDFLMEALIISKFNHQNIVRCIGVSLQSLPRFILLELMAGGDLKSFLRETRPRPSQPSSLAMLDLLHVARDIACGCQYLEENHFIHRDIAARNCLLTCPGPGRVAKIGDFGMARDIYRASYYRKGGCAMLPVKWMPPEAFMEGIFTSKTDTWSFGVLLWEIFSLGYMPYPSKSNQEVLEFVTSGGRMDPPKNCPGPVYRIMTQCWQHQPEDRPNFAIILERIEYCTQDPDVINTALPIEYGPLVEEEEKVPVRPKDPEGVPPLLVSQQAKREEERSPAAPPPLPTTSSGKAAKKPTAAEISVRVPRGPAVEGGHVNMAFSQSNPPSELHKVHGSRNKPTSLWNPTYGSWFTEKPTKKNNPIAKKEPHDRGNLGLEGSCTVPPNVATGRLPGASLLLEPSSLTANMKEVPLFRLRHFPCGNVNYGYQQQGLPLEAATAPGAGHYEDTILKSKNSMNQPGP

B1: T8V/S10A/K15L: variant Fyn SH2 domain: Thr position 8 to Val, Ser position 10 to Ala, Lys position 15 to Leu; SEQ ID NO:17 (protein)
chain: APVDSIQAEEWYFGKLGRKDAERQLLSFGNPRGTFLIRESETVKGAYALSIRDWDDMKGDHVKHYLIRKLDNGGYYITTRAQFETLQQLVQHYSERAAGLCCRLVVPCHKG
modifications: Synthetic construct T8V/S10A/K15L
Take B1: in assay [1], the “average affinity increase, Kd[wild-type] divided by Kd[variant]” value is recorded as 293 fold. Moreover, the “binding to non-phosphorylated peptide” value in [2] is listed as “did not show detectable binding”. The “binding to EGFR (immunoprecipitation)” value in assay [3] is reported as “strong binding”. Moreover, in [4], the “ability to bind tyrosine-phosphorylated proteins (GST pulldown)” value was “enhanced ability”.

B2: T8I/S10A/K15L: variant Fyn SH2 domain; SEQ ID NO:16 (protein)
chain: B1 chain with V43I
modifications: Synthetic construct T8I/S10A/K15L
On to B2, for which, in [1], the “average affinity increase, Kd[wild-type] divided by Kd[variant]” value is recorded as 86.4 fold.

B3: A8V/S10A/K15L: variant human Grb2 SH2 domain, Met55 to Pro158 with A8V, S10A, K15L substitutions; SEQ ID NO: 22 (protein)
chain: MKPHPWFFGKIPRAKAEEMLSKQRHDGAFLIRESESVPGDFALSVKFGNDVQHFLVLRDGAGKYFLWVVKFNSLNELVDYHRSTSVSRNQQIFLRDIEQVPQQP
modifications: Synthetic construct Grb2_triple
For the molecule B3, in [3], the “binding to EGFR (immunoprecipitation)” value is “strong binding”.

B4: T8V/C10A/K15L: variant human Src SH2 domain, position 8 Val, position 10 Ala, position 15 Leu; SEQ ID NO:21 (protein)
chain: DSIQAEEWYFGKITRRESERLLLNAENPRGTFLVRESETVKGAYALSVSDFDNAKGLNVKHYLIRKLDSGGFYITSRTQFNSLQQLVAYYSKHADGLCHRLTTVCPTSK
modifications: Synthetic construct T8V/C10A/K15L
For B4, the “average affinity increase, Kd[wild-type] divided by Kd[variant]” value in assay [1] was 238 fold. This molecule had a Kd in assay [5] of 510 nM. Also, the “binding to EGFR (immunoprecipitation)” value in assay [3] is given as “strong binding”. In addition, the “capture of phosphorylated proteins from H370 cell lysate upon stimulation” value in assay [6] is recorded as “substantially larger amount”. Besides, the “detection of tyrosine-phosphorylated proteins by Far-Western blotting” value in [7] is “broad detection of tyrosine-phosphorylated proteins”. The “cell viability upon EGF treatment” value in [8] is reported as “reduced cell variability”. In assay [9], the “cell viability upon EGF stimulation” value is recorded as “did not significantly affect cell variability”.

The Kd is a measure of binding affinity in units of concentration. High values mean a looser complex, low ones a tighter complex.

Source of the values: US10274499B2, “SH2 domain variants” (THE UNIVERSITY OF WESTERN ONTARIO, priority 2012, dated 2019).
